The source of these data is the nanobody polyreactivity screen of Harvey et al. (2022).

The series can be described thus: yeast display, Sf9 membrane polyspecificity reagent, FACS + sequencing; frameworks hold sequencing errors. The essentials: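 Using colony PCR, genes from sorted yeast display clones were amplified, then sequenced on MiSeq at 2 × 250 and filtered by CDR length. The clones had been stained with 10% biotinylated, detergent-solubilized Sf9 membrane reagent for 1 hour at 4 °C and sorted by FACS into low and high (top ~1%) gates on anti-HA and streptavidin fluorescence. Polyreactivity labels come from the gate of origin.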
Take “QVQLVESGGGLVQAGGSLRLSCAASGRTFRKNAMGWSRQAPGKDRELVAAISASGTSTYYADSVKGRFTISRDNAKNTVYLQLNSLKPEDTAVYYSAARSYGIYDYWGQGTQVTVSS”: the “polyreactivity (PSR sort gate)” value is “high polyreactivity”.

As for “QVQLVESGGGLVQAGGSLRLSCAASGRTFRKYGMGWYRPAPGTERELVAAITRSGGSTYYADSVKGRFTISRDNAKNTVYLQMNCLKPEDTSVYYCARSPVVVGSFLSYDYLGQGTQVTVSS”, the “polyreactivity (PSR sort gate)” value is reported as “high polyreactivity”.

As for “QVQLVESGGGLVQAGGSLRLSCAASGRTFRLNAMGWYRQAPGKERELVAGIRVRAGTTYYADSVKGRFTISRDNAKNTVYLQRNSLKPEDTAVYYCAAESYSRSRKYDYWGQGTQVTVSS”, the “polyreactivity (PSR sort gate)” value is “high polyreactivity”.

For “QVQLVESGGGLVQAGGSLRLSCAASGRTFRLNGMGWYRQAPGKERELVAAITWSGGRTDYADSVKGRFTISRDNAKNTVYLQMNSLKPEDTAVYYCAAGKSSYGKPKYYYWGQGTQVTVSS”, the “polyreactivity (PSR sort gate)” value is recorded as “high polyreactivity”.

On to “QVQLVESGGGLVQAGGSLRLSCAASGRTFRLNVMGWYRQAPGKERELVATISWSGGTTYYADSVKGRFTISRDNAKNTVYFQMNCLKPEDTAVYYCNRQVTWYPTGGYWGQGTQVTVSS”, for which the “polyreactivity (PSR sort gate)” value is recorded as “low polyreactivity”.

For the sequence “QVQLVESGGGLVQAGGSLRLSCAASGRTFRLYAMGWYRDATGKERELFAAISRRGTSTHYADSVKGRFTISRDNAKNTVYLQMNSLKPEDTAVYYCAVDSNTYSFYGTHDDWGQGTQVTVSS”, the “polyreactivity (PSR sort gate)” value was “high polyreactivity”.

In the case of “QVQLVESGGGLVQAGGSLRLSCAASGRTFRLYAMGWYRQAPGKERELVAAISWRGGRTYYADSVKGRFTISRDNAKNTVYLQMNSLKPEDTAVYYCAAEDGYGQYDYWGQGTQVTVSS”, the “polyreactivity (PSR sort gate)” value is listed as “high polyreactivity”.

With “QVQLVESGGGLVQAGGSLRLSCAASGRTFRLYAMGWYRQAPGKERELVATITSSGGSTYYADSVKGRFTISRDKAKNTVYLQMNSLKPEDTAVYYCAAQTYYSYDYWGQGTQVTVSS”, the “polyreactivity (PSR sort gate)” value was “low polyreactivity”.

With “QVQLVESGGGLVQAGGSLRLSCAASGRTFRNNAMGWYRQAPGKERELVAAISRTGGRTYYADSVKGRFTISRDNAKNTVYLQMNSLKPEDTAVYYCNAAYLVREYDYWGQGTQVTVSS”, the “polyreactivity (PSR sort gate)” value is “high polyreactivity”.

With “QVQLVESGGGLVQAGGSLRLSCAASGRTFRNYAMGWYRQAPGKERELVAAISRSGGITYYADSVKGRFTISRDNSKNTVYLQMNSLKPEDTAVYYCAARHTYQGPGTYPMFYWGQGTQVTVSS”, the “polyreactivity (PSR sort gate)” value is reported as “high polyreactivity”.

Turning to “QVQLVESGGGLVQAGGSLRLSCAASGRTFRPYAMGWDRQAPGKEREFVAAIRSSGDSTYYADSVKGRFTISRDNAKNTVYLQMNSLKPEDTAVYYCAADVYRYRVRGMNYWGQGTQVTVSS”, the “polyreactivity (PSR sort gate)” value is listed as “high polyreactivity”.

For the sequence “QVQLVESGGGLVQAGGSLRLSCAASGRTFRPYAMGWYRQAPGKERELVAAIDSSGTSTYYADSVKGRFTISRDNAKNTVYLQMYSLKPEDTAVYYCAKAWPDHWYSRYDYWGQGTQVTVSS”, the “polyreactivity (PSR sort gate)” value is “low polyreactivity”.

“QVQLVESGGGLVQAGGSLRLSCAASGRTFRPYAMGWYRQAPGKERELVAAITSCGSTYYADSVKGRFTISRDNAKNTVYLQMNSLKPEDTAVYYCNAKYYYQPPYDYWGQGTQVTVSS”: the “polyreactivity (PSR sort gate)” value was “low polyreactivity”.

Take “QVQLVESGGGLVQAGGSLRLSCAASGRTFRPYAMGWYRQAPGKERELVAAITSGVSTYYADSVKGRFTISRDNAKNTVYLQMNSLKPEDTAVYYCNKVISREVGIRMDYWGQGTQVTVSS”: the “polyreactivity (PSR sort gate)” value is “high polyreactivity”.

In the case of “QVQLVESGGGLVQAGGSLRLSCAASGRTFRQYAMGWYRQAPGKERELVATISSGGSTYYADSVKGRFTISRDNAKNTVYLLMNSLKPEDTAVYYCAAPYWARKYWRKFGPFDYWGQGTQVTVSS”, the “polyreactivity (PSR sort gate)” value is “low polyreactivity”.

Regarding “QVQLVESGGGLVQAGGSLRLSCAASGRTFRQYAMGWYRQSPGKERELVATISGGGGNTYYADSVKGSFTISRDNAKNTVYLQMNSLKQEDTAVYYCAARRRDRPVRGYDYWGQGTQVTVSS”, the “polyreactivity (PSR sort gate)” value was “high polyreactivity”.

With “QVQLVESGGGLVQAGGSLRLSCAASGRTFRRNAMGWYRQAPGKERELVAAINTGGGTYYADSVKGRFTISRDHAKNTVYLQMNSLKPEDTAVYYCNAGTRYGSFSYVKYDWGQGTQVTVSS”, the “polyreactivity (PSR sort gate)” value was “high polyreactivity”.

In the case of “QVQLVESGGGLVQAGGSLRLSCAASGRTFRRNAMGWYRQAPGKERELVAAIRWSSGSTYYADSVNGRFTISRDNAKNTVYLQMNSLKPEDTAVYYCAADGDWYGYIWQSDDGYDSWGQGTQVTVSS”, the “polyreactivity (PSR sort gate)” value is given as “low polyreactivity”.

For “QVQLVESGGGLVQAGGSLRLSCAASGRTFRRNAMGWYRQAPGKERELVAPISRGGSTNYADSVKGRFSISRDNAKNTVYLQMNSMKPEDTAVFYCAARYYYRYNYWGQGTQVTVSS”, the “polyreactivity (PSR sort gate)” value is recorded as “high polyreactivity”.

Take “QVQLVESGGGLVQAGGSLRLSCAASGRTFRRNAMGWYRQAPGKERELVASINRGGGTNYADSVKGRFTISRDNAKHTVYLQMNSLKPEDTAVYYCAAGPGTYWGYDYWGQGTQVTVSS”: the “polyreactivity (PSR sort gate)” value is given as “low polyreactivity”.

“QVQLVESGGGLVQAGGSLRLSCAASGRTFRRNAMGWYRQAPGKERELVATITGGGRTNYADSVKGRFTISRDNAKNTVYLQMNSLKPEDTAVYYCAAAAGSYNTGYGYWGQGTQVTVSS”: the “polyreactivity (PSR sort gate)” value is “high polyreactivity”.

In the case of “QVQLVESGGGLVQAGGSLRLSCAASGRTFRRNAMGWYRQAPGKEWELVADISNGDSTKYADSVKGRFTISRDNAKNTVYLQMNSLKPEDTAVYYCNAQRYRVVVYNSHGWQTRNYWGQGTQVTVSS”, the “polyreactivity (PSR sort gate)” value was “low polyreactivity”.

Consider “QVQLVESGGGLVQAGGSLRLSCAASGRTFRRNTMGWYRQAPGQEWELVAAISSSGSSTYYADSVKGRFTISRDNAKNTVYLQMKSLKPEDTAVYYCAATGYPRFGYWGQGTQVTVSS”, for which the “polyreactivity (PSR sort gate)” value is “high polyreactivity”.

For the sequence “QVQLVESGGGLVQAGGSLRLSCAASGRTFRRYAMGWYRQAPGKERELVAAIRSDGSTYYADSVKGRFTISRDNAKNTVYLQMNSLKPEDTAVYYCAKVLDQRRRYDYWGQGTQVTVSS”, the “polyreactivity (PSR sort gate)” value was “low polyreactivity”.

On to “QVQLVESGGGLVQAGGSLRLSCAASGRTFRRYAMGWYRQAPGKERELVAAISRSGGSTSYADSVKGRFTISRDNAKNTVYLQMKSLKPEDTAVYYCAVEVASYDRRPSEYYWGQGTQVTVSS”, for which the “polyreactivity (PSR sort gate)” value is listed as “high polyreactivity”.

As for “QVQLVESGGGLVQAGGSLRLSCAASGRTFRRYTMGWYRQAPGKESELVATISSGGSTYADSVKGRFTISLDNAKNTVYLQMNSLKPEDTAVYYCAARYDVAWYSKRYSWGQGTQVTVSS”, the “polyreactivity (PSR sort gate)” value is on record as “high polyreactivity”.

Regarding “QVQLVESGGGLVQAGGSLRLSCAASGRTFRSYAMGWYRQAPGKERELVAAITRTGSTYYADSVKGRFTISRDNAKNTVYLQMNSLKPEDTAVYYCAARFVYGYDYWGQGTEVTVSS”, the “polyreactivity (PSR sort gate)” value is “high polyreactivity”.

“QVQLVESGGGLVQAGGSLRLSCAASGRTFRSYAMGWYRQAPGKERELVAGITTSGGSTYYADSVKGRFTISRDNAKNTVYLQMNSLKPEDTAVYYCNARSWYSFHPHDYWGQGTQVTVSS”: the “polyreactivity (PSR sort gate)” value was “high polyreactivity”.

Regarding “QVQLVESGGGLVQAGGSLRLSCAASGRTFRSYTRGWYRQAAGKERELVAAINRGDRTYADSVKGRFTISRDNAKNTVYLQMNSLKPEDTAVYYCAARYYGGYGKQPRARYGYWGQGTQVTVSS”, the “polyreactivity (PSR sort gate)” value is listed as “high polyreactivity”.

“QVQLVESGGGLVQAGGSLRLSCAASGRTFRTYAMGWYRQAPGKERELVAAITTSGSSTYYADSVNGRFTISRDNAKKTVYLQMNILKPEDTAVYYCAAARAAIVPGYYSWGQGSQVTVSS”: the “polyreactivity (PSR sort gate)” value is on record as “low polyreactivity”.

Take “QVQLVESGGGLVQAGGSLRLSCAASGRTFRTYTMGWYRQAPGKERELVAAISIGGRTNYADSVKGRFTISRDNAKNTVFLQMNSLKPEDTAVYYCIAARWVPRSYGYWGLGTQVTVSS”: the “polyreactivity (PSR sort gate)” value was “high polyreactivity”.

In the case of “QVQLVESGGGLVQAGGSLRLSCAASGRTFRTYVMGWYRQAPGKEREFVAGITWSSGSTRYADSVKGRFTISRDNAKNTVYLQMNSLKPEDTAVYYCAAKRWPGTDGYWGQGTQVTVSS”, the “polyreactivity (PSR sort gate)” value was “high polyreactivity”.

In the case of “QVQLVESGGGLVQAGGSLRLSCAASGRTFRTYVMGWYRQAPGKERELVAAITGSGGSTYYADSVKGRFTISRDNAKNTVYLQMNSLKPEDTAVYYCAADYRWDYYWYDYAEYDYWGQGTQVTVSS”, the “polyreactivity (PSR sort gate)” value is listed as “low polyreactivity”.

For the sequence “QVQLVESGGGLVQAGGSLRLSCAASGRTFRTYVMGWYRRAPGKEREFVAGITWSSGSTRYADSVKGRFTISRDNAKNTVYLQMNSLKPEDTAVYYCAAKRWPGTDGYWGQGTQVTVSS”, the “polyreactivity (PSR sort gate)” value is “high polyreactivity”.

Take “QVQLVESGGGLVQAGGSLRLSCAASGRTFRVYAIGWYRQAPGKERELVAAISGSGGSTYYADSVKGRFTISRDNAKNTVYLQMISLKPEDTAVYYCAKGSYRSYWYRAYDYWGQGTQVTVSS”: the “polyreactivity (PSR sort gate)” value is reported as “low polyreactivity”.

“QVQLVESGGGLVQAGGSLRLSCAASGRTFRVYAMGWYRPAPGKERELVATITSSGGSTYYADSVKGRFTISRDNAKNTVYLQMNSLKPEDTAVYYCNVSVYYNYDSSYYYWGQGTQVTVSS”: the “polyreactivity (PSR sort gate)” value was “low polyreactivity”.

For the sequence “QVQLVESGGGLVQAGGSLRLSCAASGRTFRVYAMGWYRPAPGKERELVATITSSGGSTYYADSVKGRFTISRDNAKNTVYLQMNSLKPEDTGVYYCNVSVYYNYDSSYYYWGQGTQVTVSS”, the “polyreactivity (PSR sort gate)” value is on record as “low polyreactivity”.

For the sequence “QVQLVESGGGLVQAGGSLRLSCAASGRTFRVYAMGWYRQAPGKEREFVAAISYSGGRTYYADSVKGRFTISRDNAKNTVYLQMKSLKPEDTAVYYCAKRVPYGRGVTGYYWGQGTQVTVSS”, the “polyreactivity (PSR sort gate)” value was “high polyreactivity”.

Take “QVQLVESGGGLVQAGGSLRLSCAASGRTFRVYAMGWYRQAPGKERELVAAINGRGGSTYYADSVKGRFTISRDNAKNTVYFQLNSLKPEDTAVYYCNALARTSWRMDYWGQGTQVTVSS”: the “polyreactivity (PSR sort gate)” value was “high polyreactivity”.

“QVQLVESGGGLVQAGGSLRLSCAASGRTFRVYAMGWYRQAPGKERELVASITNDGSTYADSVKGRFTISRDNAKNTVYLQMNSLKPEDTAVYFCAARFPQWRYSRRTGERFDYWGQGTQVTVSS”: the “polyreactivity (PSR sort gate)” value is “low polyreactivity”.

“QVQLVESGGGLVQAGGSLRLSCAASGRTFRVYAMGWYRQAPWKERELVAAISGRGGRTYYADSVKGRFTISRDNAKNTVYLQMNSLKPEDTAVYYCTADVGVYHDDYWGQGTQVTVSS”: the “polyreactivity (PSR sort gate)” value is recorded as “high polyreactivity”.
